The test deals with Full-length human NF1 isoform 2 (short isoform), recombinant (human) (UniProt P21359). Nature of the test: cryo-EM structure.

Turning to “Full-length human NF1 isoform 2 (short isoform), recombinant, P21359-2 1-2818”, the stoichiometry N came out at 2.

What is called stoichiometry N is a count of units in the complex or per binding partner.
